Experimental data from publication PMC3898472, “Molecular Basis for DNA Double-Strand Break Annealing and Primer Extension by an NHEJ DNA Polymerase”.

Biological target: Mt-PolDom K217A (UniProt P9WNV3 1-300, K217A)
Assay: EMSA
Conditions: protein: recombinant; label: 32P 5'-end label

B1: 1-nt gapped SP1C/T13C/DG-P (dsDNA)
DNA 1: AGAAGTGTATCTAGTACTCACTGTGATC
DNA 2: GATCACAGTGAGTAC
DNA 3: AGATACACTTCT
modifications: 5'-phosphate on DG
B1: binds.
